Source: patent US20220041658A1 (PROTAGONIST THERAPEUTICS, published 2022)
Positions of bridges follow the written chain, without caps; N, C: chain ends. Non-standard residues stand in square brackets, D forms with d. Trp(7-Me) = Cc1cccc2c(C[C@H](N)C(=O)O)c[nH]c12; 2Nal = N[C@@H](Cc1ccc2ccccc2c1)C(=O)O; AEF = NCCOc1ccc(C[C@H](N)C(=O)O)cc1; Cit = NC(=O)NCCC[C@H](N)C(=O)O; αMeL = CC(C)C[C@](C)(N)C(=O)O; Pen = CC(C)(S)[C@H](N)C(=O)O; αMeK = C[C@](N)(CCCCN)C(=O)O; βAla = NCCC(=O)O

T1: interleukin-23 receptor (IL-23R) (human, UniProt Q5VWK5 24-629)
T1 sequence (looked up): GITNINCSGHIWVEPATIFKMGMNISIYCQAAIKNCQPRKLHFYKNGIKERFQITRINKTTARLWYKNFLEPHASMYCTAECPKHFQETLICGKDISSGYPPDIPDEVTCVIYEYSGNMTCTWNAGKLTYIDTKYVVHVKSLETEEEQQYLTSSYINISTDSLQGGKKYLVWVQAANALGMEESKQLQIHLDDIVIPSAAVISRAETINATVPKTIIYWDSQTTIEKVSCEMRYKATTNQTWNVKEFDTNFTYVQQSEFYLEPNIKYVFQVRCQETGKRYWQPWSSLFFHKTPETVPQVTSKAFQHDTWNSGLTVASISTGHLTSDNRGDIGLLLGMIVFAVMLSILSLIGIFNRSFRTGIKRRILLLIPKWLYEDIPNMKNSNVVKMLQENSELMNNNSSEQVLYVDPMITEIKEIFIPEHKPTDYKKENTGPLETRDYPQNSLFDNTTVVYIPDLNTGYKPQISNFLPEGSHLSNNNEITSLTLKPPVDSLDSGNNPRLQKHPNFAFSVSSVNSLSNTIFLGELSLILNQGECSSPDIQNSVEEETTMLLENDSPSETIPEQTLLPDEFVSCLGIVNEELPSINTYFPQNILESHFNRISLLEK

B1: Peptide of SEQ ID NO: 215 (peptide)
peptide: XNTXQXXXXKHX
modifications: Ac-[Pen]-NT-[W(7-Me)]-Q-[Pen]-Phe[4-(2-aminoethoxy)]-[2-Nal]-[a-MeLeu]-[Lys(Ac)]-[(D)His]-[bA]-NH2; Pen-Pen disulfide
B2: Peptide of SEQ ID NO: 223 (peptide)
peptide: XNTXQXXXXKXX
modifications: Ac-[Pen]-NT-[W(7-Me)]-Q-[Pen]-Phe[4-(2-aminoethoxy)]-[2-Nal]-[a-MeLeu]-[Lys(Ac)]-[N-MeAla]-[bA]-NH2; Pen-Pen disulfide
B3: Peptide of SEQ ID NO: 360 (peptide)
peptide: XNTXKXXXXXNL
modifications: Ac-[Pen]-N-T-[W(7-Me)]-[Lys(Ac)]-[Pen]-Phe[4-(2-aminoethoxy)]-[2-Nal]-[a-MeLys]-[Lys(trifluoropropionic)]-N-[(D)Leu]-NH2; Pen-Pen disulfide
B4: Peptide of SEQ ID NO: 361 (peptide)
peptide: XNTXKXXXXXNL
modifications: Ac-[Pen]-N-T-[W(7-Me)]-[Lys(Ac)]-[Pen]-Phe[4-(2-aminoethoxy)]-[2-Nal]-[a-MeLys]-[Lys(valeric)]-N-[(D)Leu]-NH2; Pen-Pen disulfide
B5: Peptide of SEQ ID NO: 363 (peptide)
peptide: XNTXKXXXXXNL
modifications: Ac-[Pen]-N-T-[W(7-Me)]-[Lys(Ac)]-[Pen]-Phe[4-(2-aminoethoxy)]-[2-Nal]-[a-MeLys]-[Lys(PEG11-OMe)]-N-[(D)Leu]-NH2; Pen-Pen disulfide
B6: Peptide of SEQ ID NO: 221 (peptide)
peptide: XNTXQXXXXKSX
modifications: Ac-[Pen]-NT-[W(7-Me)]-Q-[Pen]-Phe[4-(2-aminoethoxy)]-[2-Nal]-[a-MeLeu]-[Lys(Ac)]-S-[bA]-NH2; Pen-Pen disulfide
B7: Peptide of SEQ ID NO: 209 (peptide)
peptide: XNTXQXXXXKAX
modifications: Ac-[Pen]-NT-[W(7-Me)]-Q-[Pen]-Phe[4-(2-aminoethoxy)]-[2-Nal]-[a-MeLeu]-[Lys(Ac)]-[(D)Ala]-[bA]-NH2; Pen-Pen disulfide
B8: Peptide of SEQ ID NO: 362 (peptide)
peptide: XNTXKXXXXXNL
modifications: Ac-[Pen]-N-T-[W(7-Me)]-[Lys(Ac)]-[Pen]-Phe[4-(2-aminoethoxy)]-[2-Nal]-[a-MeLys]-[Lys(PEG3-OMe)]-N-[(D)Leu]-NH2; Pen-Pen disulfide
B9: Peptide of SEQ ID NO: 232 (peptide)
peptide: XNTXQXXXXKNX
modifications: Ac-[Pen]-NT-[W(1-Me)]-Q-[Pen]-Phe[4-(2-aminoethoxy)]-[2-Nal]-[a-MeLys]-[Lys(Ac)]-N-[bA]-NH2; Pen-Pen disulfide
B10: Peptide of SEQ ID NO: 203 (peptide)
peptide: RXQTXQCXXXENX
modifications: Ac-[(D)Arg]-Abu-Q-T-[W(7-Me)]-Q-C-Phe[4-(2-aminoethoxy)]-[2-Nal]-[THP]-E-N-[bA]-NH2; Abu-Cys thioether
B11: Peptide of SEQ ID NO: 359 (peptide)
peptide: XNTXKXXXXXNL
modifications: not fully specified; Ac-[Pen]-N-T-[W(7-Me)]-[Lys(Ac)]-[Pen]-Phe[4-(2-aminoethoxy)]-[2-Nal]-[a-MeLys]-[Lys(benzyl)]-N-[(D)Leu]-NH2; Pen-Pen disulfide
B12: Peptide of SEQ ID NO: 202 (peptide)
peptide: XNTXQXXXXKNX
modifications: Ac-[Pen]-NT-[W(7-Me)]-Q-[Pen]-Phe[4-(2-aminoethoxy)]-[2-Nal]-[a-MeLys]-[Lys(Ac)]-N-[bA]-NH2; Pen-Pen disulfide
B13: Peptide of SEQ ID NO: 261 (peptide)
peptide: Ac-[Pen]NT[Trp(7-Me)][Cit][Pen][AEF][2Nal][αMeK]K(Ac)N[dS]-NH2
modifications: disulfide 1-6
SMILES: CC(=O)NCCCC[C@H](NC(=O)[C@](C)(CCCCN)NC(=O)[C@H](Cc1ccc2ccccc2c1)NC(=O)[C@H](Cc1ccc(OCCN)cc1)NC(=O)[C@H]1NC(=O)[C@H](CCCNC(N)=O)NC(=O)[C@H](Cc2c[nH]c3c(C)cccc23)NC(=O)[C@H]([C@@H](C)O)NC(=O)[C@H](CC(N)=O)NC(=O)[C@@H](NC(C)=O)C(C)(C)SSC1(C)C)C(=O)N[C@@H](CC(N)=O)C(=O)N[C@H](CO)C(N)=O
B14: Peptide of SEQ ID NO: 258 (peptide)
peptide: XNTXKXXXXKNF
modifications: Ac-[Pen]-NT-[W(7-Me)]-[Lys(Ac)]-[Pen]-Phe[4-(2-aminoethoxy)]-[2-Nal]-[a-MeLys]-[Lys(Ac)]-N-[(D)Phe]-NH2; Pen-Pen disulfide
B15: Peptide of SEQ ID NO: 234 (peptide)
peptide: XNTXXXXXXKNX
modifications: Ac-[Pen]-NT-[W(7-Me)]-[a-MeLys]-[Pen]-Phe[4-(2-aminoethoxy)]-[2-Nal]-[a-MeLeu]-[Lys(Ac)]-N-[bA]-NH2; Pen-Pen disulfide
B16: Peptide of SEQ ID NO: 208 (peptide)
peptide: XNTXQXXXXKLX
modifications: Ac-[Pen]-NT-[W(7-Me)]-Q-[Pen]-Phe[4-(2-aminoethoxy)]-[2-Nal]-[a-MeLeu]-[Lys(Ac)]-L-[bA]-NH2; Pen-Pen disulfide
B17: Peptide of SEQ ID NO: 216 (peptide)
peptide: XNTXQXXXXKIX
modifications: Ac-[Pen]-NT-[W(7-Me)]-Q-[Pen]-Phe[4-(2-aminoethoxy)]-[2-Nal]-[a-MeLeu]-[Lys(Ac)]-I-[bA]-NH2; Pen-Pen disulfide
B18: Peptide of SEQ ID NO: 218 (peptide)
peptide: XNTXQXXXXKTX
modifications: Ac-[Pen]-NT-[W(7-Me)]-Q-[Pen]-Phe[4-(2-aminoethoxy)]-[2-Nal]-[a-MeLeu]-[Lys(Ac)]-[(D)Thr]-[bA]-NH2; Pen-Pen disulfide
B19: Peptide of SEQ ID NO: 251 (peptide)
peptide: XNTXKXXXXKNV
modifications: Ac-[Pen]-NT-[W(7-Me)]-[Lys(Ac)]-[Pen]-Phe[4-(2-aminoethoxy)]-[2-Nal]-[a-MeLys]-[Lys(Ac)]-N-[(D)Val]-NH2; Pen-Pen disulfide

target: T1, interleukin-23 receptor (IL-23R); experiment: cell-based or functional assay

pStat3 HTRF IC50 [nM]	Binder
3.21	Ac-[Pen]NT[Trp(7-Me)][αMeL][Pen][AEF][2Nal][αMeK]K(Ac)N[βAla]-NH2 (disulfide 1-6) [Peptide of SEQ ID NO: 235]
4.94	B1
134	B2
0.568	B3
0.596	B4
0.446	B5
1.27	B6
9.84	B7
0.107	B8
4.5	B9
1.84	B10
0.725	B11
1.1	B12
0.522	B13
0.92	B14
3.48	B15
5.39	B16
13.5	B17
11	B18
0.986	B19
0.702	Ac-[Pen]NT[Trp(7-Me)][Cit][Pen][AEF][2Nal][αMeL]K(Ac)N[βAla]-NH2 (disulfide 1-6) [Peptide of SEQ ID NO: 227]

target: T1, interleukin-23 receptor (IL-23R); experiment: cell-based or functional assay; remark: another data set of the same source

NK Cell Assay IC50 [nM]	Binder
10.2	Ac-[Pen]NT[Trp(7-Me)][αMeL][Pen][AEF][2Nal][αMeK]K(Ac)N[βAla]-NH2 (disulfide 1-6) [Peptide of SEQ ID NO: 235]
20	B1
8.3	B2
1.1	B3
1.47	B4
4.36	B5
5.5	B6
30.1	B7
3.81	B8
9	B9
2.3	B10
4.97	B11
3.49	B12
4.87	B13
9.7	B14
7.7	B15
7.8	B16
> 500	B17
50.2	B18
8.19	B19
2.95	Ac-[Pen]NT[Trp(7-Me)][Cit][Pen][AEF][2Nal][αMeL]K(Ac)N[βAla]-NH2 (disulfide 1-6) [Peptide of SEQ ID NO: 227]
